Assay results taken from publication PMC12098740.

What was measured:
Cinpanemab (BIIB-054) = test: SPR
[1] = biological target: Full length, human α-synuclein, recombinant monomer (Homo sapiens (Human).) (UniProt P37840); test: microfluidic diffusional sizing
[2] = biological target: human α-syn oligomers (ND Biosciences) (Homo sapiens (Human).) (UniProt P37840); test: microfluidic diffusional sizing
[3] = biological target: α-syn aggregates of MSA patient brain (Homo sapiens (Human).) (UniProt P37840); test: ELISA
[4] = biological target: α-syn aggregates of PD patient brain (Homo sapiens (Human).) (UniProt P37840); test: ELISA

Row | Substance | Kd (Cinpanemab (BIIB-054)) [nM] | Kd [1] [nM] | Kd [2] [nM] | EC50 [3] [nM] | EC50 [4] [nM]
1 | Full length, human α-synuclein, recombinant monomer (from UniProt P37840 1-140) (natural protein) | > 100 | – | – | – | –
2 | Lu AF82422 (amlenetug), monospecific wild type human IgG1 (antibody) | – | 12 | 0.3 | 0.09 | 0.16
